Source: US8445635B2, “Modified H2 relaxin for tumor suppression” (Armour Therapeutics Inc., priority 2006, dated 2013)

Columns and labels:
[1] = biological target: T1, LGR7 (Homo sapiens, UniProt Q9HBX9); experiment: Flow cytometry-based relaxin binding assay on 293T-LGR7 cells, competed with bH2; conditions: unconcentrated CM, WT H2 1 and 4 ng/mL, ΔH2 1 ng/mL, competed with 5 ng bH2
T1 construct: expressed in transfected cells; host or cells: 293T-LGR7 (293T human embryonic kidney cells)
T1 sequence (Q9HBX9 1-757): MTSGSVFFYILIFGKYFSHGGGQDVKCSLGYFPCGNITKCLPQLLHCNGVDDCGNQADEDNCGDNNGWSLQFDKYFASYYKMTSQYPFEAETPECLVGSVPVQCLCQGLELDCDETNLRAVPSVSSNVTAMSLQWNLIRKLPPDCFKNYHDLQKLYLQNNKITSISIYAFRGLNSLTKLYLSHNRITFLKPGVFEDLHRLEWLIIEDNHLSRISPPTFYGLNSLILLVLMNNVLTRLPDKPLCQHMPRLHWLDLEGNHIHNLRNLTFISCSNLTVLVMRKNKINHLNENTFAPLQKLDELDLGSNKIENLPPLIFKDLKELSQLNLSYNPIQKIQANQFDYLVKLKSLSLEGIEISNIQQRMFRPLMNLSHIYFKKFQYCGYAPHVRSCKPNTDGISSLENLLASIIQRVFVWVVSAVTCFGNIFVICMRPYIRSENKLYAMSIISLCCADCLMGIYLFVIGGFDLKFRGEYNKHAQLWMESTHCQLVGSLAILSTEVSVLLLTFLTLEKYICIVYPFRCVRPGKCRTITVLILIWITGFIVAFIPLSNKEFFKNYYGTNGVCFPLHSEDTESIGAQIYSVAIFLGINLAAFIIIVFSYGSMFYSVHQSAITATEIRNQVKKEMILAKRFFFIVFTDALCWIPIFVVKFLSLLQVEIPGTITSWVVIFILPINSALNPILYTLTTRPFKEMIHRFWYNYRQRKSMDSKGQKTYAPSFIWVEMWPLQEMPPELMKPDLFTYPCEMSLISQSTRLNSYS
Protocol: To optimize collection of recombinant ΔH2 peptide for this assay, single-cell clones of LV-infected 293T cell cultures were isolated. Clones were confirmed by flow cytometry measuring eGFP fluorescence and selected based on highest expression. 293T-eGFP#3, 293TΔH2/eGFP#6, 293T-H2/eGFP#3 cell cultures were seeded in 15-cam plates in complete medium overnight, refreshed with Dulbecco's Modified Eagle Medium (DMEM) medium containing 2% FCS after 24 h, and incubated for an additional 48 h. At this point, CM were collected for assays. H2 relaxin levels in unconcentrated CM from 293T-eGFP#3, 293TΔH2/eGFP#6, 293T-H2/eGFP#3 cell cultures were approximated by the H2 ELISA to be 0, 1, and 4 ng/mL (data not shown).
293T-LGR7 cells were collected, washed with PBS supplemented with 1% FCS (PBS-1%), and resuspended at 1.67×10^7 cells/mL. For each sample, 30 μl (0.5×10^6 […]) were added per 5 mL polystyrene round-bottom Falcon tube (Becton Dickinson Labware, Franklin Lakes, N.J., USA). Control samples contained 50 μL of either PBS-1% containing 5 ng of rH2 or 50 μL of PBS-1% alone. […] Samples were incubated for 15 min at RT. […] Cells were washed twice with 500 μL of PBA-1% and analyzed on a FACSCalibur flow cytometer) BDBiosciences, Franklin Lakes, N. J., USA).

[2] = Plasma osmolality of PC3-Luc tumor-bearing mice at week 11; format: in vivo, mouse; conditions: week 11, P=0.04
Protocol: To determine whether H2 and ΔH2 relaxins secreted from the PC3-Luc tumor xenografts elicited a systemic physiological response, plasma osmolality was measured from the animals at the termination of the study (FIG. 4D). Plasma osmolality readings obtained from PC3-H2/eGFP, PC3-Luc-eGFP and PC3-Luc-ΔH2/eGFP animals averaged 330±4.6 […] and 342±4.6 mmol/L, respectively. […] Overexpression of ΔH2 relaxin in the tumor microenvironment may inhibit endogenous H2 relaxin progrowth signals to tumor cells or tumor-infiltrated ECs.
Six-to-eight week old male NOD/SCID mice (The Jackson Laboratory; Bar Harbour, Me.) wore maintained at the Animal Resource Facility (PMH, Toronto, Canada) under an approved UHN protocol. […] Tumors were measured weekly by calipers and tumor volume approximated (l×w×d), as described previously (Silvertown, J. D., Ng, J., Sato, T., Summerlee, A. J., Medin, J. A. 2006. H2 relaxl; overexpression increases in vivo prostate xenograft tumor growth and angiogenesis. Iift J Cancer. 118:62-73). […] For plasma osmolality readings, approximately 100-200 μL of blood was collected in heparin (heparin sodium, 1000 USP units/mL; Hepalean) and sent for analysis (Animal Health Laboratory, Department of Pathobiology, University of Guelph).

[3] = tested on: relaxin receptor; conditions: Bullesbach 1992; cited from earlier work
[4] = biological target: T2, relaxin receptors on THP-1 cells (Homo sapiens, UniProt Q9HBX9); experiment: THP-1 cAMP bioassay; conditions: THP-1 and PC3-Luc cell cultures
T2 sequence (Q9HBX9 1-757): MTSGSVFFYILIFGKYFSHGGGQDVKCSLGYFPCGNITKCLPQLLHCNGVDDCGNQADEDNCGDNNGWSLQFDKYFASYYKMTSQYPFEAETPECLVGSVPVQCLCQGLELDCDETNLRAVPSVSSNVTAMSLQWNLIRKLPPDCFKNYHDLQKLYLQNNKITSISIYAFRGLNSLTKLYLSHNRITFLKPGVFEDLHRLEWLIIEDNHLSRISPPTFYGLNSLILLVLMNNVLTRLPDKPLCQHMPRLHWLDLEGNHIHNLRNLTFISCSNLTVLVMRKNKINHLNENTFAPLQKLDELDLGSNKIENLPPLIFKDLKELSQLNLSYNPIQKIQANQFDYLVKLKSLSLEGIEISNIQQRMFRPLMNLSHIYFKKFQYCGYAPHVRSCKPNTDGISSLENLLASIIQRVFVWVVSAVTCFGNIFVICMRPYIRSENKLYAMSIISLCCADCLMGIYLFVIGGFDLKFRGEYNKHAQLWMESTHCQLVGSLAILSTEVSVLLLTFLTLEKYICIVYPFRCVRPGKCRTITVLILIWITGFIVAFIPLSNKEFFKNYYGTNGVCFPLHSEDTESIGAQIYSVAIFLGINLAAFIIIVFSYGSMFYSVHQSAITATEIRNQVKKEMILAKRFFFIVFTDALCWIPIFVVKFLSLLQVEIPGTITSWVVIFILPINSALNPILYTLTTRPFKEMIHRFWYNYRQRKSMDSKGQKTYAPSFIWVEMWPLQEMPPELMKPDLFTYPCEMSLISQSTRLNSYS
Text: To confirm the biological activity of the H2 and ΔH2 relaxins, the cAMP Biotrak E1A System was employed (Amersham Biosciences) as described before (Parsell, D. A., Mak, J. Y., Amento, E P., Unemori, E. N. 1996. Relaxin binds to and elicits a response from cells of the human monocytic cell line, THP-1. J Biol Chem. 271:27936-41; Silvertown, J. D., Geddes, B. J., Summerlee, A. J. 2003. Adenovirus mediated expression of human prorelaxin promotes the invasive potential of canine mammary cancer cells. Endocrinology. 144:3683-91). For measuring bioactivity from CM, 40 μL from each concentrated CM sample was added to THP-1 cells. For measuring cAMP levels directly from the LV-infected PC3-Luc cells, 1×10^5 cells were seeded in a 96-well plate and equilibrated for 2 h before cAMP was measured as described (Parsell, D. A., Mak, J. Y., Amento, E P., Unemori, E. N. 1996. Relaxin binds to and elicits a response from cells of the human monocytic cell line, THP-1. J Biol Chem. 271:27936-41; Silvertown, J. D., Geddes, B. J., Summerlee, A. J. 2003. Adenovirus-mediated expression of human prorelaxin promotes the invasive potential of canine mammary cancer cells. Endocrinology. 144:3683-91). The THP-1 cAMP assay was also adapted for an H2 relaxin competitive assay. […]

B1: ΔH2: H2 relaxin with lysine substitution at B13 and B17 of the receptor binding domain, B20 Ile (protein, UniProt P04090 1-185, looked up, variant R13K R17K)
chain: MPRLFFFHLLGVCLLLNQFSRAVADSWMEEVIKLCGKELVKAQIAICGMSTWSKRSLSQEDAPQTPRPVAEIVPSFINKDTETINMMSEFVANLPQELKLTLSEMQPALPQLQQHVPVLKDSSLLFEEFKKLIRNRQSEAADSSPSELKYLGLDTHSRKKRQLYSALANKCCHVGCTKRSLARFC
modifications: B-chain numbering
receptor affinity [1]: low | plasma osmolality increase compared to wild-type H2-expressing tumor animals [2]: approximately 12 mmol/L | biological activity [3]: biologically inactive | lower affinity for receptor binding than wild type H2 relaxin [3]: ~2200 fold | Bioactivity by cAMP assays [4]: significantly impaired
